From the Human Domainome abundance scans (Beltran et al. 2025)
± gives the uncertainty stated by the source.

B1: GAS2-like protein 1, residues 209 to 276; numbered along this chain, Q99501 (parent)
chain: DELVREILGRCTCPDQFPMIKVSEGKYRVGDSSLLIFVRVLRSHVMVRVGGGWDTLEHYLDKHDPCRC

Variants of: B1
Test: abundance fitness (aPCA) (normalised: wild type 0, dead -1); higher = more abundant; growth selection in yeast, the domain comes from the species named
Conditions: Homo sapiens

Variant	abundance fitness
H58R	-0.116 ± 0.043
H58F	-0.877 ± 0.22
H58Q	-0.34 ± 0.11
H58M	-0.514 ± 0.066
H58P	-0.933 ± 0.17
H58K	-0.138 ± 0.051
H58W	-0.752 ± 0.13
H58E	-0.102 ± 0.072
H58G	0.008 ± 0.044
H58Y	-0.676 ± 0.081
H58C	-0.3 ± 0.068
H58V	-0.688 ± 0.063
H58A	0.043 ± 0.042
H58L	-0.673 ± 0.074
Y59S	-0.583 ± 0.059
Y59H	-1.03 ± 0.29
Y59E	-0.946 ± 0.14
Y59F	0.139 ± 0.11
Y59Q	-0.55 ± 0.12
Y59K	-0.782 ± 0.13
Y59G	-0.904 ± 0.12
Y59V	-0.568 ± 0.08
Y59T	-0.862 ± 0.17
Y59D	-1.03 ± 0.43

Variant	abundance fitness
Y59R	-0.886 ± 0.097
Y59I	-0.962 ± 0.21
Y59L	-0.749 ± 0.073
Y59M	-0.767 ± 0.13
Y59N	-1.02 ± 0.41
Y59A	-0.927 ± 0.13
Y59P	-0.954 ± 0.14
E57H	-0.669 ± 0.086
E57C	-0.993 ± 0.18
E57K	-0.598 ± 0.33
E57Q	-0.235 ± 0.16
E57L	-0.873 ± 0.12
E57V	-0.765 ± 0.15
E57T	-0.365 ± 0.077
E57S	-0.388 ± 0.052
E57I	-0.669 ± 0.11
E57G	-0.627 ± 0.11
E57F	-0.958 ± 0.14
E57D	-0.21 ± 0.2
E57P	-0.922 ± 0.16
E57R	-0.899 ± 0.14
K62M	-0.038 ± 0.049
K62S	-0.214 ± 0.046
K62P	-0.832 ± 0.12

Variant	abundance fitness
K62G	-0.337 ± 0.045
K62V	0.092 ± 0.038
K62W	-0.512 ± 0.076
K62E	0.054 ± 0.048
K62A	-0.069 ± 0.049
K62T	-0.048 ± 0.049
K62C	-0.25 ± 0.052
K62R	-0.065 ± 0.042
K62H	-0.298 ± 0.11
K62Y	-0.242 ± 0.073
K62L	-0.004 ± 0.04
K62N	-0.091 ± 0.14
K62I	-0.078 ± 0.096
K62Q	0.137 ± 0.09
K62D	-0.234 ± 0.064
K62F	-0.27 ± 0.11
R67Q	-0.882 ± 0.15
R67S	-0.789 ± 0.09
R67V	-0.975 ± 0.14
R67E	-0.847 ± 0.29
R67K	-0.616 ± 0.12
R67H	-0.931 ± 0.48
R67L	-0.706 ± 0.09
R67N	-1.01 ± 0.35

Variant	abundance fitness
R67C	-0.92 ± 0.15
R67P	-0.902 ± 0.2
R67D	-0.849 ± 0.17
R67G	-0.945 ± 0.19
R67A	-0.763 ± 0.17
R67I	-0.638 ± 0.21
R67Y	-0.995 ± 0.28
R67W	-1.02 ± 0.25
R67M	-0.899 ± 0.13
P65H	-0.605 ± 0.22
P65A	-0.591 ± 0.11
P65E	-0.688 ± 0.16
P65Y	-0.826 ± 0.16
P65D	-0.757 ± 0.31
P65R	-0.625 ± 0.072
P65M	-0.946 ± 0.19
P65V	-0.904 ± 0.15
P65I	-0.711 ± 0.4
P65N	-0.498 ± 0.27
P65S	-0.898 ± 0.11
P65C	-0.819 ± 0.22
P65Q	-0.771 ± 0.17
P65K	-0.734 ± 0.12
P65W	-0.857 ± 0.14

Variant	abundance fitness
P65G	-0.837 ± 0.11
H63A	-0.434 ± 0.12
H63T	-0.322 ± 0.16
H63L	-0.18 ± 0.052
H63Q	-0.555 ± 0.18
H63C	-0.377 ± 0.12
H63W	-0.233 ± 0.09
H63R	-0.162 ± 0.046
H63F	-0.015 ± 0.092
H63G	-0.719 ± 0.12
H63P	-0.455 ± 0.15
H63K	-0.077 ± 0.14
H63E	-0.11 ± 0.17
H63M	-0.145 ± 0.083
H63Y	-0.081 ± 0.057
H63V	-0.017 ± 0.061
D61Y	-0.068 ± 0.061
D61T	-0.183 ± 0.054
D61F	-0.203 ± 0.056
D61H	-0.274 ± 0.081
D61Q	-0.123 ± 0.086
D61V	-0.246 ± 0.034
D61N	-0.094 ± 0.054
D61S	-0.146 ± 0.045

Variant	abundance fitness
D61P	-0.729 ± 0.22
D61R	-0.212 ± 0.048
D61E	0.105 ± 0.045
D61I	-0.3 ± 0.066
D61G	-0.176 ± 0.041
D61W	-0.305 ± 0.049
D61K	-0.249 ± 0.094
D61A	-0.074 ± 0.043
D61M	-0.073 ± 0.039
D61L	-0.063 ± 0.04
T55Y	-0.033 ± 0.092
T55R	-0.09 ± 0.039
T55Q	-0.431 ± 0.065
T55P	-0.282 ± 0.092
T55N	-0.185 ± 0.08
T55V	-0.773 ± 0.11
T55W	-0.801 ± 0.14
T55S	0.027 ± 0.05
D64P	-0.824 ± 0.18
D64H	-0.511 ± 0.14
D64C	-0.319 ± 0.093
D64R	-0.659 ± 0.067
D64S	-1.02 ± 0.21
D64E	-0.668 ± 0.12

Variant	abundance fitness
D64N	-0.86 ± 0.15
D64I	-0.75 ± 0.15
D64G	-0.792 ± 0.071
D64V	-0.927 ± 0.14
D64L	-0.812 ± 0.088
D64A	-1.03 ± 0.18
D64Y	-0.936 ± 0.14
D64T	-0.869 ± 0.21
D64Q	-0.93 ± 0.14
D64K	-1.12 ± 0.3
D64F	-0.419 ± 0.11
D64M	-0.888 ± 0.13
C68G	0.176 ± 0.12
C68I	-0.016 ± 0.21
C68Y	0.047 ± 0.06
C68T	0.225 ± 0.11
C68N	-0.078 ± 0.18
C68H	0.058 ± 0.086
C68L	0.132 ± 0.05
C68F	0.015 ± 0.078
C68W	-0.051 ± 0.086
C68E	-0.024 ± 0.16
C68S	0.118 ± 0.078
